Assay results taken from patent publication US20170335007A1 (Xencor, published 2017).
Positions count from the first letter of the chain named.

T1: human CD39 expressed on cells (human, UniProt P49961 1-510)
T1 sequence: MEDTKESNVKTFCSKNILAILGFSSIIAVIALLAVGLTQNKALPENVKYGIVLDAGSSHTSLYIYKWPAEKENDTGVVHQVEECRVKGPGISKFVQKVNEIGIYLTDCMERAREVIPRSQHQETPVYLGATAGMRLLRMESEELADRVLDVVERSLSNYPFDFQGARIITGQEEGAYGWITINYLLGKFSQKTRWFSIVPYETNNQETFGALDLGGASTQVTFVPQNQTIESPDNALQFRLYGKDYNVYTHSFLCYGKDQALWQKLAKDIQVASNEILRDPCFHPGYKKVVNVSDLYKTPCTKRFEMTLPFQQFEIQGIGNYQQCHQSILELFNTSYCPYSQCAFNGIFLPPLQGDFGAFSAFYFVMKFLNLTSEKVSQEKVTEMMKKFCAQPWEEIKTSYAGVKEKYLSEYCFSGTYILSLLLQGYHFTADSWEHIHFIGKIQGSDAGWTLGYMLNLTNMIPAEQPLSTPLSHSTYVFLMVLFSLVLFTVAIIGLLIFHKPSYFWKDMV

T2: recombinant human CD39 (R&D Systems) (human, UniProt P49961 38-478)
T2 construct: bought; also called CD39 antigen (R&D Systems); ENTPD1
T2 sequence: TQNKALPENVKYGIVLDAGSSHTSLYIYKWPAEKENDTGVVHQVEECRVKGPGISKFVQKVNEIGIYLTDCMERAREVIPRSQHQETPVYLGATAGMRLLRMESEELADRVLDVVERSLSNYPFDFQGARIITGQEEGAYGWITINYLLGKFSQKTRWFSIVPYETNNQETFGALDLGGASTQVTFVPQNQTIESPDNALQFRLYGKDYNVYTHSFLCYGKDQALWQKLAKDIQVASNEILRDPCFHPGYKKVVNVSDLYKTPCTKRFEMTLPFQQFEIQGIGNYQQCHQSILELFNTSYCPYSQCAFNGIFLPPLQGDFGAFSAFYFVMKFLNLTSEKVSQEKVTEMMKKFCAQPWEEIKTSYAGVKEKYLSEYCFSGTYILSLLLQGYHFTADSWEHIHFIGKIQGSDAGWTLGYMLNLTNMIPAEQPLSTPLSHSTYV

B1: anti-CD39 monoclonal antibody 5-165C (antibody, V domains shown)
VH: EVQLVESGGDLVKPGGSLKLSCAAFGFTFSRYGMSWVRQTPDKRLEWVATITSGGIYTYYPDSVKGRFTISRDNAKNTLYLQMSSLKSEETAMYYCARHGQFGDYYGMDYWGQGTSVTVSS
VL: DVVMTQTPLSLPVSLGDQASISCRSSQSLLHSNGNTYLHWYLQKPGQSPKLLIYKVSNRFSGVPDRFSGSGSGTDFTLKISRVEAEDLGVYFCSQSTHVPYTFGGGTKLEIK
notes: purified mouse hybridoma antibody, IgG2a isotype; also called R21-5-165C; R29-5-165C
B2: anti-CD39 monoclonal antibody 5-71A (antibody, V domains shown)
VH: DVQLVESGGGLVQPGGSRKLSCAASGFTFSSFGMHWVRQAPEKGLELVAYISSGSTIRYYSDTVKGRFTISRDNPKNTLFLQMTSLRSEDTAMYYCARFLYEGFRYGMDYWGQGTSVTVSS
VL: B1 VL with V3L, L29I, L30V, H39E, V90I, F92Y, S94F, S96G, T97S, Y101N
notes: purified mouse hybridoma antibody, IgG2a isotype; also called R21-5-71A; R29-5-71A
B3: anti-CD39 monoclonal antibody 5-13A (antibody, V domains shown)
VH: QVQLQQSGPELVKPGASVRISCKASGYTFTGYYVHWVKQRPGQGLEWIGWIYPGNVNTKYNEKFKAKATLTADKSSSTGYMQLSRLTSEDSAVYFCARSPYYGTTYYYTMDYWGQGTSVTVSS
VL: EIVLTQSPAFMAASPGEKVTITCSVSLIISSRNLHWYQQKSETSPKPWIYGTSNLASGVPVRFSGSGSGTSYSLTISSMEAEDAATYYCQQWSDYPLTFGSGTKLEIK
notes: purified mouse hybridoma antibody, IgG2a isotype; also called R21-5-13A; R29-5-13A
B4: anti-CD39 monoclonal antibody 9-8B (antibody, V domains shown)
VH: QIQLVQSGPELKKPGETVKISCKASGYTFTHYGMNWVKQAPGKGLKWMGWINTYTGELTYADDFKGRFAFSLETSASTAYLQINNLKNEDTATYFCARRAYYRYDYVMDYWGQGTSVTVSS
VL: DIVMTQSQKFMSTSVGDRVSVTCKASHNVGTNVAWYQQKPGQSPKALIYSASYRYSGVPGRFTGSGSGTDFTLTISNVQSEDLAEYFCHQYNNYPYTFGGGTKLEIK
notes: purified mouse hybridoma antibody, IgG2a isotype; also called R21-9-8B; R29-9-8B

Key:
[1] = molecular target: T1, human CD39 expressed on cells; test: cell-based or functional assay
[2] = molecular target: T1, human CD39 expressed on cells; test: cell-based or functional assay; remark: listed apart in the source
[3] = molecular target: T1, human CD39 expressed on cells; test: cell-based or functional assay; remark: listed apart in the source
[4] = molecular target: T1, human CD39 expressed on cells; test: flow cytometry on JVM-13 cells (endogenous human CD39)
Protocol: Binding of antibody was also assessed in a cell line that expresses endogenous human CD39 (e.g. the B-prolymphocytic leukemia cell line JVM-13). Thirty-five anti-CD39 antibodies as described in Example 2 were tested for their binding to JVM-13 cells. […] Median fluorescence intensities for each primary antibody concentration were used to derive a flow EC50/Kd using the one site—specific binding with Hill slope model in Prism (GraphPad Prism Software). Results are shown as Flow EC50 in Table 8.

[5] = molecular target: T2, recombinant human CD39 (R&D Systems); test: BLI (Octet QK384); antibody on anti-mouse IgG Fc sensor, recombinant human CD39 in solution
Protocol: Additional binding assays were conducted. Affinity measurements of thirty-five purified anti-CD39 antibodies as described in Example 2 were carried out on the OctetQK384 sytem (ForteBio). After coating anti-mouse IgG Fc sensors with a purified anti-CD39 antibody, association and dissociation of recombinant human CD39 (R&D Systems) was monitored. Affinity (KD) and kinetic constants (ka and kd) were derived using ForteBio's software.

[6] = molecular target: T2, recombinant human CD39 (R&D Systems); test: SPR (ProteOn XPR36); antibody captured by anti-mouse antibody, CD39 in solution, 1:1 fit; ProteOn XPR36 SPR, Table 9
Protocol: (§1) Affinity measurements of four exemplary purified anti-CD39 antibodies (5-13A, 5-71A, 5-165C and 9-31A) were also carried on the ProteOn XPR36 (BioRad) using a GLM sensor chip. The running buffer contained 10 mM HEPES, 150 mM NaCl, 0.005% Tween-20 at pH 7.4. All data were collected at 25 degrees C. Anti-mouse capturing antibody was amine coupled at four densities on flow cells using standard s—NHS/EDC activation. A dilution series of […], 16.6, 5.5 and 1.85 nM CD39 antigen (R&D Systems) was tested for binding to the anti-CD39 antibody surfaces. The data were processed by subtracting the response from the inter-reference surfaces as well as the buffer blank injection. The processed response data from four density surfaces were globally fit to a simple 1:1 interaction model using Scrubber 2 (Biologic Software Pty Ltd).

[7] = molecular target: T2, recombinant human CD39 (R&D Systems); test: SPR (ProteOn XPR36); antibody captured by anti-mouse antibody, CD39 in solution, 1:1 fit
Protocol: as §1

Binder | % Inhibition of ATPase Activity in ARH-77 cells (antibody at 1200 ng/mL) [1] [%] | % Inhibition of ATPase Activity in IM-9 cells (antibody at 1200 ng/mL) [2] [%] | % Inhibition of ATPase Activity in HUVEC cells (antibody at 900 ng/mL) [3] [%] | EC50 [4] [nM] | Kd [5] [nM] | koff [5] [s⁻¹] | kon [5] [M⁻¹ s⁻¹] | Kd [6] [nM] | koff [6] [s⁻¹] | kon [6] [M⁻¹ s⁻¹] | Kd [7] [nM] | koff [7] [s⁻¹] | kon [7] [M⁻¹ s⁻¹]
B1 | -2.5 | -0.1 | -9.8 | 0.11 | 2.53 | 0.000196 | 77400 | 1.25 | 0.000109 | 87500 | – | – | –
B2 | 3.6 | – | – | 0.09 | 0.73 | 5.22e-05 | 71100 | – | – | – | 0.09 | 1.4e-05 | 153000
B3 | -6.2 | 0.8 | -4.4 | 0.18 | 1.52 | 0.000159 | 105000 | – | – | – | 1.16 | 0.000221 | 191000
B4 | 36.5 | 29.8 | 33.7 | 0.26 | 3.1 | 0.000848 | 273000 | – | – | – | – | – | –
